Source: the supplement of paper PMC9170038

Test system: MS2 coat protein
Experiment: apparent KD of MS2 coat protein; designed switch direction (-1 OFF switch, 1 ON switch): -1; higher = weaker reporter binding
Method in brief: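 The reported apparent KD is a per-design median over clusters, from curve fits of normalised cluster fluorescence. Protein titrations used SNAP-549-labelled MS2 coat protein, doubled from 0.7 or 1.5 nM to 3 µM, in Tris-HCl pH 7.5 buffer with KCl, MgCl2, BSA, DTT, tRNA and Tween-20, with no input, 200 uM small-molecule ligand, or an oligonucleotide input. The RNA switches were transcribed on Illumina chips by stalled E. coli RNA polymerase.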

[1] = input ligand: microRNA oligo, concentration not stated
[2] = Eterna round: R95, input ligand: microRNA oligo, concentration not stated
[3] = Eterna round: R95, input ligand: FMN 200 uM
[4] = Eterna round: R95, input ligand: none

Row | Sequence | apparent KD of MS2 coat protein (input ligand: FMN 200 uM) | apparent KD of MS2 coat protein (input ligand: none) | apparent KD of MS2 coat protein [1] | apparent KD of MS2 coat protein [2] | apparent KD of MS2 coat protein [3] | apparent KD of MS2 coat protein [4]
1 | GGAUCAUAUGUCAGGAUAUGCUGGACCUUGGUUCAGCAGAAGGGACAUGAGGAUCACCCAUGUCAUGGAGAUCC [Mat - Exclusion 4 - Eli Mod - D53] (Eterna round: R97, puzzle: Brourd's mod of Exclusion 4) | 0.27 µM | 0.415 µM |  |  |  | 
2 | AUAAAACAUGUAGGAUAUGCGUAGCGAAGCUAUGCAGAAGGACAUGAGGAUCACCCAUGUCUUUCCGUCUGCGAACAGACGGAA [Mat - Exclusion NG 1 - Mod of JL - D44] (Eterna round: R96, puzzle: Exclusion NG 1) | 0.0357 µM | 0.021 µM | 0.0138 µM |  |  | 
3 | GGGUGUCGAGUUAGGAUAUCGAUGCCGUAACGGCUCGAGAAGGGACUUGAGGAUCACCCAAGUCUGGUCGAGGC [Rierariis] (Eterna round: R97, puzzle: Brourd's mod of Exclusion 4) | 0.0234 µM | 0.0184 µM |  |  |  | 
4 | CAAUUCCGAGGAUAUACAUGAGGAUCACCCAUGUCGGGCCUCAGCGUUUAGCGCCUCAGUAGAAGGCGGGUUUC [JL Riri mod 3] (puzzle: Exclusion 3) |  |  |  | 0.0244 µM |  | 
5 | ACGCACACGCACGCACGCACACAUGAGGAUCACCCAUGUAAUUAGGAUAUAUUGAAGAACAGAGAAUAGAAGGAAUUACUCAUG [Default title] (Eterna round: R96, puzzle: Exclusion NG 3) | 0.105 µM | 0.0707 µM | 0.088 µM |  |  | 
6 | AAUAAAGGCCGAGGAUAUCGGAAAGGAAGUGUACGAGAAGGCGGCAAAAGAACAUGAGGAUCACCCAUGUGGGCCGAUCUUCCG [PowerStrip EXNG 1.2] (Eterna round: R96, puzzle: Exclusion NG 1) | 0.0264 µM | 0.018 µM | 0.01 µM |  |  | 
7 | UUUUAACAUGAGGAUCACCCAUGUGAGGAUAUCGAAAUUUAUAUUAAUAUUAUUUAAACGAGAAGGCACAUUUU [JMF 43] (puzzle: Exclusion 1) |  |  |  | 0.0704 µM |  | 
8 | CACCGUUACACAGGAUAUCUUACAUGAGGAUCACCCAUGUAAUAAAUGAGAAUUUCGAAUGUAAAAGAGAAGGGUGGAAUCGGC [Ostracism 66 - Jieux - Exclusion NG 2] (Eterna round: R96, puzzle: Exclusion NG 2) | 0.0731 µM | 0.0303 µM | 0.0218 µM |  |  | 
9 | AAGAAUCUAGGAUAUUAGCGGGCCUACAUGAGGAUCACCCAUGUCGUGUCGCGGGUAUGCUGAGAAGGAGAGCACA [EX5 B.5] (Eterna round: R97, puzzle: Exclusion 5) | 0.0163 µM | 0.0163 µM |  |  |  | 
10 | AAAAGGUCAGGAUAUCGACGCGGUUGGGAGGCAGGUCCGCGCGAGAAGGGACAUGAGGAUCACCCAUGUUAAAA [Excls4-IV] (puzzle: Exclusion 4) |  |  |  | 0.0228 µM | 0.0335 µM | 0.0264 µM
11 | UUUUUUGUAGUGAGGAUAUCGUUGAGGAUGUGGAUCGAGAAGGCACAUGAGGAUCACCCAUGUUAGAUGUGGUU [JR_BMOE4_Sub083] (puzzle: Brourd's mod of Exclusion 4) |  |  |  | 0.173 µM |  | 
12 | ACUGGUCGAGGAUAUGCAAUCGUGCUUCGGCACGUAAGAUCACAUGAGGAUCACCCAUGUAGAAGGCGACCAGU [E2/3-A2] (Eterna round: R97, puzzle: Exclusion 2) | 0.0817 µM | 0.0212 µM |  |  |  | 
13 | GUUUUACAUGAGGAUCACCCAUGUGAGGAUAUGUUAUUAAUAGCGAUAGUUAUUGGUGGCAGAAGGCGCGUGAU [JR_Exc1_Sub011] (Eterna round: R97, puzzle: Exclusion 1) | 0.343 µM | 0.0826 µM |  |  |  | 
14 | UAUGGUUAAGUCAGGAUAUGCACGCAGAGAACAAAGCAGAAGGGACAUGAGGAUCACCCAUGUAAAGUCGUGUU [Ex4 #77] (Eterna round: R97, puzzle: Brourd's mod of Exclusion 4) | 0.0312 µM | 0.023 µM |  |  |  | 
15 | AAGAAACAUGAGGAUCACCCAUGUGAGGAUAUGAGAAAGAAAAGAAAAGAAAGAAGAUUCAGAAGGCACAAAGG [salish99-ex1_r3_035] (puzzle: Exclusion 1) |  |  |  | 0.0439 µM | 0.0919 µM | 0.05 µM
16 | GAUUAGAUAGGAUAUACAGGCUCGUCUUUAUAUUGAUCCCGACAUGAGGAUCACCCAUGUAGAAGGAUUAGAUU [Mod 30 - Jieux - Exclusion 2] (Eterna round: R97, puzzle: Exclusion 2) | 0.0257 µM | 0.0266 µM |  |  |  | 

Row | Sequence | apparent KD of MS2 coat protein (input ligand: FMN 200 uM) | apparent KD of MS2 coat protein (input ligand: none) | apparent KD of MS2 coat protein [1] | apparent KD of MS2 coat protein [2] | apparent KD of MS2 coat protein [3] | apparent KD of MS2 coat protein [4]
17 | UAGAAUCGAGGAUAUACAUGAGGAUCACCCAUGUGUGGCCACUUGGUGUGGUCGUCAGGUAGAAGGCGAUUACA [Exclusion 3 - Mod of Jieux's Gilly Gone Silly 23 v.4] (puzzle: Exclusion 3) |  |  |  | 0.0309 µM | 0.0269 µM | 0.0394 µM
18 | AGUACUAUGCGAGCUGACUUGCGUAGUGCAGCAGGUGAAACAUGAGGAUCACCCAUGUCCUCAUUUGCUCGUCUUAA [Mat - Sensor v3 - Turn-off var 2 - D3] (puzzle: Sensor v3, turn-off variant 2) |  |  |  | 0.563 µM | 0.0397 µM | 0.038 µM
19 | CUUAUGUGAGGAUAUCAGUAGUGAUACGAUAGUAUUACUGCUGAGAAGGCACAUGAGGAUCACCCAUGUUCCUU [Exclusion 4 - Mod Omei Ex4 344 mod v.3] (puzzle: Exclusion 4) |  |  |  | 0.0219 µM |  | 
20 | GAAAAGGUAGGAUAUACGAAAAAAAAGGGUAGAAAAAAUACACAUGAGGAUCACCCAUGUAGAAGGACCAAAAG [salish99_ex2_r3_073] (puzzle: Exclusion 2) |  |  |  | 0.0239 µM | 0.138 µM | 0.0297 µM
21 | GGACCAAGUCUAGGAUAUUUCAAUAGUUGUGUGAGAGAAGGAGAAUAACAUGAGGAUCACCCAUGUACCUCAAGUAGGCCGAUU [Eternabot solution 16] (Eterna round: R96, puzzle: Exclusion NG 1) | 0.0592 µM | 0.048 µM | 0.0362 µM |  |  | 
22 | UCAUCGCAAGGAUAUACUUGCGGUGAUGUUCGAAUUCUUCUACUUGAGGAUCACCCAAGUAGAAGGUGCGAUGA [jl-ex2.4.63 ViennaUCT mod] (Eterna round: R97, puzzle: Exclusion 2) | 0.0132 µM | 0.0135 µM |  |  |  | 
23 | AGUACUAACACGCCUGUGUUAGUACAAUAAGCUUGUGAAACAUGAGGAUCACCCAUGUCCUCAUAAGCUCGUCUUAU [salish99_TOv2_r3_077] (puzzle: Sensor v3, turn-off variant 2) |  |  |  | 0.671 µM | 0.0163 µM | 0.0154 µM
24 | UACCGUGGUUAGGAUAUACCGUGACACCGCUGAGUAGAAGGAACCACAUGAGGAUCACCCAUGUAAUAUGAAGG [Eternabot (L2) Solution 94] (Eterna round: R97, puzzle: Exclusion 6) | 0.159 µM | 0.0519 µM |  |  |  | 
25 | GUUCGACAUGAGGAUCACCCAUGUGAGGAUAUACGAUUAGCUGCUAGGUAGUUAGUAUGUAGAAGGUGCGUGUA [EX1 #71] (Eterna round: R97, puzzle: Exclusion 1) | 0.036 µM | 0.0343 µM |  |  |  | 
26 | ACAUGAGGAUCACCCAUGUACAGGGUUUAGUUUCAUCGUUUGAAGGAUAUACACUGUUAGUUGUCGUAGAAGGUCACUGAUUGG [JR_ExcNG3_Sub010] (Eterna round: R96, puzzle: Exclusion NG 3) | 0.0939 µM | 0.13 µM | 0.0933 µM |  |  | 
27 | CGGUGCUGAGGAUAUACAUGAGGAUCACCCAUGUGUGCCAGCUAGCUGACUGGCGCUUGUAGAAGGCAGUACUG [JL-ex3-2.12 Brourd mod] (puzzle: Exclusion 3) |  |  |  | 0.0114 µM |  | 
28 | GUGGUGACAGGAUAUACAUGAGGAUCACCCAUGUGAGGAGGACGAGACAGGUGAAGGAGUAGAAGGGUCAGAGG [JR_Exclu3_Sub027] (puzzle: Exclusion 3) |  |  |  | 0.0745 µM | 0.0667 µM | 0.0603 µM
29 | CUCCUACAUGAGGAUCACCCAUGUCAGGAUAUCUCAGUAGCACCUAAAGGUGCUACCCAGAGAAGGGACGUGCA [Enororce] (puzzle: Exclusion 1) |  |  |  | 0.0111 µM |  | 
30 | GACAUGAGGAUCACCCAUGUAAGGGAUGAACUUCUGGGUAGCUAGGAUAUGGCUACAAAGGUGGACCAGAAGGAGCGUACCCUU [Amaqura] (Eterna round: R96, puzzle: Exclusion NG 3) | 0.0106 µM | 0.0286 µM | 0.0143 µM |  |  | 
31 | AAUACUAACACGAAAGUGUUAGUAAAAUAAGCUUGUGGUACAUGAGGAUCACCCAUGUCCUCAUAAGCUCGUCUUAU [Mat - Sensor v3 - Turn-off var 2 - D43] (puzzle: Sensor v3, turn-off variant 2) |  |  |  | 0.0754 µM | 0.023 µM | 0.0214 µM
